Test results published in publication PMC12816671.

Tests used:
Ku70/80-dSAP = Ku70/80-dSAP (Homo sapiens, UniProt P12956;P13010 1-544;1-732); test: EMSA; higher shift than full length, multiple loading; SAP EMSA: 105 mM KCl (400 bp) or 46 mM KCl (153 bp), 3 mM Tris-HCl pH 7.5, 0.1 mM EDTA, 3-4% glycerol, 15 min room temp, agarose (0.8% or 1.5%); Ku70/80 EMSA: 5; conditions: protein: recombinant; copies: 1;1
Ku70/80 full length = Ku70/80 full length (Homo sapiens, UniProt P12956;P13010 1-609;1-732); test: EMSA; SAP EMSA: 105 mM KCl (400 bp) or 46 mM KCl (153 bp), 3 mM Tris-HCl pH 7.5, 0.1 mM EDTA, 3-4% glycerol, 15 min room temp, agarose (0.8% or 1.5%); Ku70/80 EMSA: 5; conditions: protein: recombinant; copies: 1;1
Chain of Ku70/80 full length (P12956 whole entry, chain 1 of 2, the tested form may be a part): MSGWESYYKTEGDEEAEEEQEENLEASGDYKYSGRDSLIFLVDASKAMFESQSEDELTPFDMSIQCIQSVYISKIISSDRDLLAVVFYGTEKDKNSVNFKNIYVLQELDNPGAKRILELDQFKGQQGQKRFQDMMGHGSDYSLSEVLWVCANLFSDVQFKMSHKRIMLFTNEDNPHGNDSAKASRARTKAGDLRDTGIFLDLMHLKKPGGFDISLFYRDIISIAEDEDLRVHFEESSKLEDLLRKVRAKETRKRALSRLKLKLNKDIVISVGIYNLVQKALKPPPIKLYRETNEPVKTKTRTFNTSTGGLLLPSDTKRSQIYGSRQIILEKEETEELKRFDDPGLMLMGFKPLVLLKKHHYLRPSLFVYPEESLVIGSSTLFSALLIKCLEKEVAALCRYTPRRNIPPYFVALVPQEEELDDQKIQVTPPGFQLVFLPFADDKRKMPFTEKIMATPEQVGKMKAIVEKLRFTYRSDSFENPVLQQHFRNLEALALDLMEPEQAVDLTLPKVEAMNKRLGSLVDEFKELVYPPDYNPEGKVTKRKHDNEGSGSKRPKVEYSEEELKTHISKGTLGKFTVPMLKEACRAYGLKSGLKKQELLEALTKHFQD
Chain of Ku70/80 full length (P13010 whole entry, chain 2 of 2, the tested form may be a part): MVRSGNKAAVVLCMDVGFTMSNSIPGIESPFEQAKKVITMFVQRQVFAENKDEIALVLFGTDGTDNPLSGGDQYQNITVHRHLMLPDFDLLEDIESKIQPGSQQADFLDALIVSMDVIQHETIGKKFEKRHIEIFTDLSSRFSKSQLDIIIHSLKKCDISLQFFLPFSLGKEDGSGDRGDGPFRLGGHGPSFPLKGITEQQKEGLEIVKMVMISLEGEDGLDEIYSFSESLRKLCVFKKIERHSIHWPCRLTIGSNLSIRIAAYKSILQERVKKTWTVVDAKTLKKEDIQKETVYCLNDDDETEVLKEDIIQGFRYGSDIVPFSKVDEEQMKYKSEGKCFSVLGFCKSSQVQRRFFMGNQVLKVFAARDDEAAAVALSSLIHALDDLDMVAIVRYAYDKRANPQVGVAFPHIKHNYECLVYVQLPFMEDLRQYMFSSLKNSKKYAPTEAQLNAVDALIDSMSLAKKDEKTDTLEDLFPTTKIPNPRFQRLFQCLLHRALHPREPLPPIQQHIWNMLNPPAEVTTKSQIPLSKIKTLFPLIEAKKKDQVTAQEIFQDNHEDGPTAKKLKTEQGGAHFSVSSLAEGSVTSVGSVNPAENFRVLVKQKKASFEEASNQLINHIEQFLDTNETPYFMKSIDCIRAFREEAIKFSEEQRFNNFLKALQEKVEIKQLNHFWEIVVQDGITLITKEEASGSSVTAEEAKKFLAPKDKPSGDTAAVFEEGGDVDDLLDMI

Ku70 SAP domain WT = Ku70 SAP domain WT (Homo sapiens, UniProt P12956 539-609); test: EMSA; 46 mM KCl; preferred over nucleosome; SAP EMSA: 105 mM KCl (400 bp) or 46 mM KCl (153 bp), 3 mM Tris-HCl pH 7.5, 0.1 mM EDTA, 3-4% glycerol, 15 min room temp, agarose (0.8% or 1.5%); Ku70/80 EMSA: 5; conditions: protein: recombinant; tags: none (His14-SUMObd cleaved)
Chain of Ku70 SAP domain WT (P12956 539-609): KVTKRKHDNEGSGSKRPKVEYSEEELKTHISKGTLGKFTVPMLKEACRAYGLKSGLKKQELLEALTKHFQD

Measured: binding result

Chain of Ku70/80-dSAP (P12956 1-544, chain 1 of 2): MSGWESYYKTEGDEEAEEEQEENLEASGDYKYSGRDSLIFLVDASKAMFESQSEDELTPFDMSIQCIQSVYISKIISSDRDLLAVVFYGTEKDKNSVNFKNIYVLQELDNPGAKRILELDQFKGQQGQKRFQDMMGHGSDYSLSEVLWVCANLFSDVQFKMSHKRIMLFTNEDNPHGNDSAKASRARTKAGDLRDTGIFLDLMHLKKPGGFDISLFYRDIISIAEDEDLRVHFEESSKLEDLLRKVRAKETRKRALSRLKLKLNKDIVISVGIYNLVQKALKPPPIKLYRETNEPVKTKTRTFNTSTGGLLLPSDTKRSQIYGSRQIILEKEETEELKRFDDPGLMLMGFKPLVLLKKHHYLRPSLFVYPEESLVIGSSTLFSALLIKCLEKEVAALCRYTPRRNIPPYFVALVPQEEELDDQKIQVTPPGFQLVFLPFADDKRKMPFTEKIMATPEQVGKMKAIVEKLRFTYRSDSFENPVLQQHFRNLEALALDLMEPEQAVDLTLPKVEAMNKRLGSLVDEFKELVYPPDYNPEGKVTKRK
Chain of Ku70/80-dSAP (P13010 whole entry, chain 2 of 2): as the sequence (P13010 whole entry, chain 2 of 2, the tested form may be a part) above

B1: 153 bp free DNA (dsDNA)
DNA 1: ATCCTGGAGAATCCCGGTGCCGAGGCCGCTCAATTGGTCGTAGACAGCTCTAGCACCGCTTAAACGCACGTACGCGCTGTCCCCCGCGTTTTAACCGCCAAGGGGATTACTCCCTAGTCTCCAGGCACGTGTCAGATATATACATCCTGTGAT
DNA 2: ATCACAGGATGTATATATCTGACACGTGCCTGGAGACTAGGGAGTAATCCCCTTGGCGGTTAAAACGCGGGGGACAGCGCGTACGTGCGTTTAAGCGGTGCTAGAGCTGTCTACGACCAATTGAGCGGCCTCGGCACCGGGATTCTCCAGGAT
binds: all assays above
